Laboratory results published in patent US20240376151A1, “STAPLED PEPTIDES AND METHODS THEREOF” (FOG PHARMACEUTICALS, INC., priority 2022, published 2024).
Peptide text beside a SMILES is read from it. * marks the point of attachment. 5FAM = O=C1OC2(c3ccc(O)cc3Oc3cc(O)ccc32)c2ccc(C(=O)*)cc21

Assays:
Expi293 cells [1] = assay: CellTiter-Glo cell health (ATP levels) during cell association assay; type: cell-based; conditions: reflective of cell health, luminescence Tfinal (22 hours) / Tinitial
Expi293 cells [2] = assay: Measurement of the Cell Association of Helicons (mass spectrometry quantification in cells after treatment and wash); type: cell-based; conditions: percentage of Helicons in cells after treatment and wash, 22 hours, n = 2, mean ± SD
Method: All samples were analyzed using mass spectrometry.

CUL1 = biological target: T1, CUL1 (Homo sapiens, UniProt Q13616, L371D/V367R); assay: Naive Library Presenter Screening (phage, NGS), CUL1; type: binding; conditions: for interaction data at Target Concentration 10: CUL1 target concentration 10 nM; for interaction data at Target Concentration 30: CUL1 target concentration 30 nM; for interaction data at Target Concentration 100: CUL1 target concentration 100 nM; for interaction data at Target Concentration 300: CUL1 target concentration 300 nM; for interaction data at Target Concentration 1000: CUL1 target concentration 1000 nM
T1 construct: CUL1 (Uniprot ID: Q13616, residue 15-410, V367R/L371D); GST-TEV (N, cleaved yes); made in house; host or cells: E. coli BL21 CodonPlus
T1 sequence (Q13616 15-410 V367R/L371D): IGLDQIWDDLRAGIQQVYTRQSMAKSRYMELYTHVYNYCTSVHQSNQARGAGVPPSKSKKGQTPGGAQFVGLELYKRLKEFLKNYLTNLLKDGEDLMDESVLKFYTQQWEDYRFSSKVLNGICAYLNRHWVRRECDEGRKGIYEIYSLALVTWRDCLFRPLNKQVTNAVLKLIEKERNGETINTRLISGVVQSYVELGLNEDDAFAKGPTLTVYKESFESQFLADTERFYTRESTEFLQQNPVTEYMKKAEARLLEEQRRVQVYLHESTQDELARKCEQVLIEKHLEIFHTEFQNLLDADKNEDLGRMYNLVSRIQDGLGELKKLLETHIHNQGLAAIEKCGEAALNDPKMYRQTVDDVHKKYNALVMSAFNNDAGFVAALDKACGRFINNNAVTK

Compound | CellTiter-Glo fold change ± SD (Expi293 cells [1]) | Helicon in cells ± SD (%) (Expi293 cells [2]) | interaction data at Target Concentration 10 (CUL1) | interaction data at Target Concentration 30 (CUL1) | interaction data at Target Concentration 100 (CUL1) | interaction data at Target Concentration 300 (CUL1) | interaction data at Target Concentration 1000 (CUL1; first column) | interaction data at Target Concentration 1000 (CUL1; second column)
CCCC[C@H](NC(=O)[C@H](Cc1ccc(O)cc1)NC(=O)[C@H](CCC(N)=O)NC(=O)[C@]1(C)CCCC=CCCCCCC[C@@](C)(NC(=O)[C@H](CCC(=O)O)NC(=O)[C@H](CC(C)C)NC(=O)[C@@H](NC(C)=O)[C@@H](C)CC)C(=O)N[C@@H](Cc2ccc(O)cc2)C(=O)N[C@@H](CCC(=O)O)C(=O)N[C@@H](C)C(=O)N[C@@H](C)C(=O)N[C@@H](Cc2ccccc2)C(=O)N[C@@H](CCC(=O)O)C(=O)N1)C(N)=O (single isomer, unassigned) [FP08018, Ac-Ile-Leu-Glu-R8-Tyr-Glu-Ala-Ala-Phe-Glu-S5-Gln-Tyr-nLeu-NH2] | 1.1 ± 0.05 | 1.0 ± 0.1% | – | – | – | – | – | –
CC(C)C[C@H](NC(=O)[C@H](C)NC(=O)CNC(=O)[C@H](CCCCN)NC(=O)[C@H](CCCNC(=N)N)NC(=O)[C@H](C)NC(=O)[C@H](Cc1ccccc1)NC(=O)[C@H](CCCNC(=N)N)NC(=O)[C@H](CCC(N)=O)NC(=O)c1ccc2c(c1)C(=O)OC21c2ccc(O)cc2Oc2cc(O)ccc21)C(=O)N[C@@H](CCCNC(=N)N)C(=O)N[C@@H](CCC(N)=O)C(=O)N[C@@H](CCCCN)C(=O)N[C@@H](CC(N)=O)C(=O)N[C@H](C(N)=O)C(C)C [FP47831, reference compound] (5FAM-QRFARKGALRQKNV-NH2) | 1.1 ± 0.02 | 0.0 ± 0.0% | – | – | – | – | – | –
CCCC[C@H](NC(=O)[C@@H](NC(C)=O)C(C)C)C(=O)N[C@@H](CCC(N)=O)C(=O)N[C@]1(C)CCCCCCC=CCCC[C@@](C)(C(=O)N[C@@H](Cc2c[nH]cn2)C(=O)N[C@@H](Cc2ccc(O)cc2)C(=O)N[C@H](C(N)=O)C(C)C)NC(=O)[C@H]([C@@H](C)CC)NC(=O)[C@H](Cc2ccccc2)NC(=O)[C@H](C)NC(=O)[C@H](C)NC(=O)[C@H](CCC(=O)O)NC(=O)[C@H](Cc2ccc(O)cc2)NC1=O (single isomer, unassigned) [FP07864, Ac-Val-nLeu-Gln-R8-Tyr-Glu-Ala-Ala-Phe-Ile-S5-His-Tyr-Val-NH2] | 1.1 ± 0.05 | 18.5 ± 11.4% | – | – | – | – | – | –
CCCC[C@H](NC(=O)[C@@H](NC(C)=O)C(C)C)C(=O)N[C@@H](CCC(=O)O)C(=O)N[C@]1(C)CCCCCCC=CCCC[C@@](C)(C(=O)N[C@@H](Cc2c[nH]cn2)C(=O)N[C@@H](Cc2ccc(O)cc2)C(=O)N[C@H](C(N)=O)C(C)C)NC(=O)[C@H]([C@@H](C)CC)NC(=O)[C@H](Cc2ccccc2)NC(=O)[C@H](C)NC(=O)[C@H](C)NC(=O)[C@H](CCC(=O)O)NC(=O)[C@H](Cc2ccc(O)cc2)NC1=O (single isomer, unassigned) [FP07856, Ac-Val-nLeu-Glu-R8-Tyr-Glu-Ala-Ala-Phe-Ile-S5-His-Tyr-Val-NH2] | 1.3 ± 0.12 | 15.5 ± 0.9% | – | – | – | – | – | –
CCCC[C@H](NC(=O)[C@@H](NC(C)=O)C(C)C)C(=O)N[C@@H](CCC(N)=O)C(=O)N[C@]1(C)CCCCCCC=CCCC[C@@](C)(C(=O)N[C@@H](Cc2c[nH]cn2)C(=O)N[C@@H](Cc2ccc(O)cc2)C(=O)N[C@H](C(N)=O)C(C)C)NC(=O)[C@H]([C@@H](C)CC)NC(=O)[C@H](Cc2ccccc2)NC(=O)[C@H](C)NC(=O)[C@H](C)NC(=O)[C@H](CCC(=O)O)NC(=O)[C@H](Cc2ccc(O)cc2)NC1=O (single isomer, unassigned) [FP07863, Ac-Val-nLeu-Gln-R8-Tyr-Glu-Ala-Ala-Phe-Ile-S5-His-Tyr-Val-NH2] | 1.2 ± 0.02 | 23.5 ± 6.5% | – | – | – | – | – | –
CCCC[C@H](NC(=O)[C@H](Cc1ccc(O)cc1)NC(=O)[C@H](CCC(N)=O)NC(=O)[C@]1(C)CCCC=CCCCCCC[C@@](C)(NC(=O)[C@H](CCC(=O)O)NC(=O)[C@H](CC(C)C)NC(=O)[C@@H](NC(C)=O)[C@@H](C)CC)C(=O)N[C@@H](Cc2ccc(O)cc2)C(=O)N[C@@H](CCC(=O)O)C(=O)N[C@@H](C)C(=O)N[C@@H](C)C(=O)N[C@@H](Cc2ccccc2)C(=O)N[C@@H](CCC(=O)O)C(=O)N1)C(N)=O (single isomer, unassigned) [FP08017, Ac-Ile-Leu-Glu-R8-Tyr-Glu-Ala-Ala-Phe-Glu-S5-Gln-Tyr-nLeu-NH2] | 1.2 ± 0.01 | 0.6 ± 0.1% | – | – | – | – | – | –
CCCC[C@H](NC(=O)[C@@H](NC(C)=O)C(C)C)C(=O)N[C@@H](CCC(=O)O)C(=O)N[C@]1(C)CCCCCCC=CCCC[C@@](C)(C(=O)N[C@@H](Cc2c[nH]cn2)C(=O)N[C@@H](Cc2ccc(O)cc2)C(=O)N[C@H](C(N)=O)C(C)C)NC(=O)[C@H]([C@@H](C)CC)NC(=O)[C@H](Cc2ccccc2)NC(=O)[C@H](C)NC(=O)[C@H](C)NC(=O)[C@H](CCC(N)=O)NC(=O)[C@H](Cc2ccc(O)cc2)NC1=O (single isomer, unassigned) [FP07868, Ac-Val-nLeu-Glu-R8-Tyr-Gln-Ala-Ala-Phe-Ile-S5-His-Tyr-Val-NH2] | 1.2 ± 0.10 | 10.3 ± 1.4% | – | – | – | – | – | –
DPAEQECDHAALWCIVA | – | – | 14 | 19 | 340 | 937 | 1137 | 743
DPAQILCDLAALYCVVE | – | – | 0 | 7 | 61 | 73 | 111 | 119
DPAEMQCDYAAILCIVR | – | – | 0 | 0 | 32 | 95 | 114 | 71
DPAEQMCDIAAVWCLAH | – | – | 0 | 0 | 35 | 135 | 151 | 88
DPAEVHCDMAALYCIIR | – | – | 3 | 7 | 65 | 242 | 366 | 119
